The target of series [1] is Mycobacterium tuberculosis ribosome large subunit 50S (Mycobacterium tuberculosis (endogenous in Mtb MC2 7000)) (UniProt A5U0A0). Kind of series: co-sedimentation.
Series [2] has the same target.
The target is the same in series [3]. Kind of series: cryo-EM structure.
Series [4] concerns the molecule itself.

We go through four molecules from PMC4718548 (Structure (London, England : 1993), 2015).

Chain of Mycobacterium tuberculosis ribosome large subunit 50S (Mycobacterium tuberculosis (endogenous in Mtb MC2 7000)) (A5U0A0 whole entry, looked up): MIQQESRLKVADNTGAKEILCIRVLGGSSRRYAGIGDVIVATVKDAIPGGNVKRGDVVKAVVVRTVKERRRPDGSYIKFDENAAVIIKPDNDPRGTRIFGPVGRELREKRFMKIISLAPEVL

Consider “Mycobacterium tuberculosis ribosome small subunit 30S (complex)”, for which the percent of 50S in the 70S form, without RsfS in series [1] was over 70%.

B1: Escherichia coli RsfS, wild type, C-terminal His6 (natural protein)
chain: MQGKALQDFVIDKIDDLKGQDIIALDVQGKSSITDCMIICTGTSSRHVMSIADHVVQESRAAGLLPLGVEGENSADWIVVDLGDVIVHVMQEESRRLYELEKLWS
B1: in series [2], the inhibition in the Mtb ribosome cell-free translation assay was 80%.

B2: Mycobacterium tuberculosis ribosomal silencing factor RsfS, wild type, C-terminal His6 (natural protein)
chain: MTANREAIDMARVAAGAAAAKLADDVVVIDVSGQLVITDCFVIASGSNERQVNAIVDEVEEKMRQAGYRPARREGAREGRWTLLDYRDIVVHIQHQDDRNFYALDRLWGDCPVVPVDLSANSAGAQ
As usually defined, the stoichiometry N is the number of molecules, sites or subunits per partner or assembly. As for B2, the stoichiometry N in series [3] came out at 1.

B3: Mycobacterium tuberculosis RsfS E74A, C-terminal His6 (natural protein)
chain: MTANREAIDMARVAAGAAAAKLADDVVVIDVSGQLVITDCFVIASGSNERQVNAIVDEVEEKMRQAGYRPARRAGAREGRWTLLDYRDIVVHIQHQDDRNFYALDRLWGDCPVVPVDLSANSAGAQ
As to B3, the “stoichiometry N” value in series [4] came out at 2.
